In patent publication US5126322A, “Pancreatic secretory tryspin inhibitor and variants thereof produced by a recombinant host therefore and pharmaceutical use thereof” (Bayer Aktiengesellschaft, priority 1987, dated 1992):

Tests used:
Type in all cases: biochemical
[1] = target: T1, Granulocytic Elastase (human) (Homo sapiens, UniProt P08246); experiment: Enzyme inhibition assay, leukocyte (granulocytic) elastase, release of p-nitroaniline from MeOSuc-Ala-Ala-Pro-Val-pNA; conditions: 120 ng enzyme/assay
T1 construct: purchased Elastin Products Company, Inc
T1 sequence (P08246 30-267): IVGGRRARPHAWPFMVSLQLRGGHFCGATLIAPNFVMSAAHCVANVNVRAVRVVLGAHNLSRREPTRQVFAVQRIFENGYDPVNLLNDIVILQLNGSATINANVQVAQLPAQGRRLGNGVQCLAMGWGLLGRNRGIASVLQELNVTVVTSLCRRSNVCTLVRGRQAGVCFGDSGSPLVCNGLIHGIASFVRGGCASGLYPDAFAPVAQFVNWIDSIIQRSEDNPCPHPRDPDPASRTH
Description: (§1) Human leukocyte elastase (HLE) and porcine pancreas elastase (PPE) were obtained from Elastin Products Company, Inc. P.O. Box 147, Pacific, Miss. 63069/USA.
(§2) The substrates: MeOSuc-Ala-Ala-Pro-Val-pNA (HLE), Ac-Ala-Ala-Pro-Ala-pNA and Suc-Ala-Ala-Ala-pNA (PPE and Suc-Ala-Ala-Pro-Phe-pNA (CHT) were obtained from Bachem, Bubendorf/Switzerland.
(§3) Culture filtrates were treated as follows: 10 μl TWEEN 80 solution (0.5%) and 50 μl perchloric acid (70%) were added to 1 ml of culture filtrate. After 20 min, these samples were centrifuged, and the clear supernatants were neutralized by the addition of 225 μl saturated solution of tris base. Aliquots of these solutions were taken to determine inhibitory activities.
(§4) Generally, the samples were diluted with the appropriate buffer volume, and the enzyme was added. After the preincubation time, substrate was added (substrates are dissolved in DMSO in a concentration of 0.1M and diluted with buffer to give the concentration of the stock solution). The release of p-nitroaniline from the substrates was measured at 405 nm either continuously or after quenching the reaction by adding acetic acid. 100%- values were determined by running samples where inhibitors were omitted. Percentage inhibition was calculated using the formula: [formula] […]

α-Chymotrypsin (bovine) = target: T2, α-Chymotrypsin (bovine) (Bos taurus, UniProt P00766); experiment: Enzyme inhibition assay, α-chymotrypsin, release of p-nitroaniline from Suc-Ala-Ala-Pro-Phe-pNA; conditions: 50 ng enzyme/assay
T2 construct: purchased E. Merck, Darmstadt
Description: Bovine α-chymotrypsin (CHT) was obtained from E. Merck, Darmstadt.
as §2, §3, §4

[2] = target: T3, Pancreatic Elastase (porcine) (Sus scrofa, UniProt P00772); experiment: Enzyme inhibition assay, pancreatic elastase, release of p-nitroaniline from Ac-Ala-Ala-Pro-Ala-pNA; conditions: 500 ng enzyme/assay
T3 construct: purchased Elastin Products Company, Inc
T3 sequence (P00772 27-266): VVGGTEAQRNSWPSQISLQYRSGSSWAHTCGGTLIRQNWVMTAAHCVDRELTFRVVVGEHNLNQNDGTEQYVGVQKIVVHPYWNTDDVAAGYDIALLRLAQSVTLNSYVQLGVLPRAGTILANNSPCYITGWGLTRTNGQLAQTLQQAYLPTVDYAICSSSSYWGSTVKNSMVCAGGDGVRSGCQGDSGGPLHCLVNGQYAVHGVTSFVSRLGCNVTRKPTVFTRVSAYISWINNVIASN
Description: as §1, §2, §3, §4

| Substance | amount of inhibitor giving 50% inhibition, Granulocytic Elastase (human) [1] [ng] | amount of inhibitor giving 50% inhibition, α-Chymotrypsin (bovine) (α-Chymotrypsin (bovine)) [ng] | amount of inhibitor giving 50% inhibition, Pancreatic Elastase (porcine) [2] [ng] |
| --- | --- | --- | --- |
| Leu^18 -Ala^32 -PSTI (DSLGREAKCYNELNGCTLIYDPVCGTDGNTYANECVLCFENRKRQTSILIQKSGPC; UniProt P00995 24-79, looked up, variant K18L P32A) [PSTI-1A, PSTI variant from cyanogen bromide cleavage of the PSTI-1A minifusion protein] | 18 | 100 | 1200 |
| Met^-1 -Leu^18 -Glu^19 -Arg^21 -Ala^32 -PSTI (DSLGREAKCYNELNGCTLEYRPVCGTDGNTYANECVLCFENRKRQTSILIQKSGPC; N-terminal Met; UniProt P00995 24-79, looked up, variant K18L I19E D21R P32A) [Met-PSTI-4A] | 16 | 8 | 73 |
| Tyr^18 -Glu^19 -Arg^21 -PSTI (DSLGREAKCYNELNGCTYEYRPVCGTDGNTYPNECVLCFENRKRQTSILIQKSGPC; UniProt P00995 24-79, looked up, variant K18Y I19E D21R) [PSTI-3P] | > 5000 | 7 | – |

Next, values leading:

| amount of inhibitor giving 50% inhibition, Granulocytic Elastase (human) [1] [ng] | amount of inhibitor giving 50% inhibition, α-Chymotrypsin (bovine) (α-Chymotrypsin (bovine)) [ng] | amount of inhibitor giving 50% inhibition, Pancreatic Elastase (porcine) [2] [ng] | Substance |
| --- | --- | --- | --- |
| 15 | 6 | 68 | Asn^-13 -Ala^-12 -Glu^-11 -Thr^-10 -Ala^-9 -His^-8 -Lys^-7 -Ser^-6 -Asn^-5 -Glu^-4 -Val^-3 -Thr^-2 -Met^-1 -Leu^18 -Glu^19 -Arg^21 -Ala^32 -PSTI ({Asn-Ala-Glu-Thr-Ala-H2N}-KSNEVTMDSLGREAKCYNELNGCTLEYRPVCGTDGNTYANECVLCFENRKRQTSILIQKSGPC; ends and bridges not checked; UniProt P00995 24-79, looked up, variant K18L I19E D21R P32A) [PSTI-4A [Minifusion]] |
| 17 | 7 | 75 | Leu^18 -Glu^19 -Arg^21 -Ala^32 -PSTI (DSLGREAKCYNELNGCTLEYRPVCGTDGNTYANECVLCFENRKRQTSILIQKSGPC; UniProt P00995 24-79, looked up, variant K18L I19E D21R P32A) [PSTI-4A, PSTI variant obtained from the minifusion protein by BrCN-cleavage] |
| 15 | 100 | 70 | Val^18 -Glu^19 -Arg^21 -PSTI (DSLGREAKCYNELNGCTVEYRPVCGTDGNTYPNECVLCFENRKRQTSILIQKSGPC; UniProt P00995 24-79, looked up, variant K18V I19E D21R) [PSTI-5P] |
